Results on four molecules are retold here after PMC5658023 (Current biology : CB, 2017).

Where two headings read alike, the source gives them in different places.

To fix the notation:
T1: GST-Chs4-SLR (220-610) (S. cerevisiae, UniProt P34226 220-610)
T1 sequence (looked up): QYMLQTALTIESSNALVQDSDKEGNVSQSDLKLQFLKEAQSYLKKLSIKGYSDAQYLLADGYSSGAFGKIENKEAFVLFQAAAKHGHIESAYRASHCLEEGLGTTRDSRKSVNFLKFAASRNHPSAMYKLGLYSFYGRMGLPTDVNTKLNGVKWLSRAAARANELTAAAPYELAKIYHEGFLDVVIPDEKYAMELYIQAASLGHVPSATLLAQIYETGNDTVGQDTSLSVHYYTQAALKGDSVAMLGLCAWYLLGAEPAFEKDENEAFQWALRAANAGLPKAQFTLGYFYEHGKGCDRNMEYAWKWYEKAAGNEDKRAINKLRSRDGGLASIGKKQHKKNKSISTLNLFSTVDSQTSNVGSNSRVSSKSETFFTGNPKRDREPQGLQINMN

T2: His6-Chs3-MID (477-1028) (S. cerevisiae, UniProt P29465 477-1028)
T2 sequence (looked up): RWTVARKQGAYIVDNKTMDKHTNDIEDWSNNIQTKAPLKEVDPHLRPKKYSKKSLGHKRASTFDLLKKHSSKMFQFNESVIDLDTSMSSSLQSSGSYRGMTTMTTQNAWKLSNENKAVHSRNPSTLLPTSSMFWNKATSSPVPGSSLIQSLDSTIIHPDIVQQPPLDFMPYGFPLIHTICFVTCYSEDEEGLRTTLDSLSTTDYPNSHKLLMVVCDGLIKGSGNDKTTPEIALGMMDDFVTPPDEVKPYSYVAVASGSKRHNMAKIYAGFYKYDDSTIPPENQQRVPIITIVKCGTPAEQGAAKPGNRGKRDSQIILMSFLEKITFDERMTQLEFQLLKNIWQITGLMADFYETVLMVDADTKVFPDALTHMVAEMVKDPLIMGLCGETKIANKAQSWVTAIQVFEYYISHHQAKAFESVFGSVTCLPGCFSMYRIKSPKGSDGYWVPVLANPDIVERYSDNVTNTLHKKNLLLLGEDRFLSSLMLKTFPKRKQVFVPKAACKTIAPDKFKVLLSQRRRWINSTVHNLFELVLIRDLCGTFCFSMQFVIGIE

B1: MBP-Hof1-F-BAR (1-275) (domain or fragment, S. cerevisiae, UniProt Q05080 1-275, looked up)
chain: MSYSYEACFWDPNDNGVNILLGHISQGIRSCDSMILFFKQRSELEKDYARRLGAITGKLDKDIGTNMDYGKLNETFNVVLSVEKARAQSHSKQSEILFRQIYTDTKAFAANLQARYTTLSGKIERLRMDKFNKKKGCEVLQKKLQDAQIRFRDLQLNENNMIGAKRVEHNKRELLKWESNSQEYKVQLDVLKQEYKASQKFWIHEWAQLSCELQEMENARISFLQSKLQQFATSSMETYILEQTKMDMLTNHLNSFTAADEISTFSKENGTGRLK
B2: MBP-Chs4-SLR (220-610) (domain or fragment, S. cerevisiae, UniProt P34226 220-610, looked up)
chain: T1 sequence (looked up)
B3: His6-Hof1-N-term (domain or fragment, S. cerevisiae, UniProt Q05080 1-340, looked up)
chain: MSYSYEACFWDPNDNGVNILLGHISQGIRSCDSMILFFKQRSELEKDYARRLGAITGKLDKDIGTNMDYGKLNETFNVVLSVEKARAQSHSKQSEILFRQIYTDTKAFAANLQARYTTLSGKIERLRMDKFNKKKGCEVLQKKLQDAQIRFRDLQLNENNMIGAKRVEHNKRELLKWESNSQEYKVQLDVLKQEYKASQKFWIHEWAQLSCELQEMENARISFLQSKLQQFATSSMETYILEQTKMDMLTNHLNSFTAADEISTFSKENGTGRLKHKTSKGDMNSSANWAQMSSISTTSKKTESYMDNIRKLSSQLKETENKRKLASIDKYEKPLPSPEV
B4: MBP-Hof1-N-term (1-340) (domain or fragment, S. cerevisiae, UniProt Q05080 1-340, looked up)
chain: B3 chain

Assay in all cases: pull-down
The target in assay [1] is T1, GST-Chs4-SLR (220-610).
In assay [2] the target is T2, His6-Chs3-MID (477-1028).
Assay [3] addresses B2.
For assay [4], the target named is T1, GST-Chs4-SLR (220-610). This is another data set of the same source.

As for B1, the binding result in assay [1] is listed as “binds”. With B2, the binding result in assay [2] is listed as “binds”.

B3: the binding result in assay [3] and in assay [4] was “binds” throughout. With B4, in assay [1], the binding result is reported as “binds”.
